{"source": "paper PMC5714945", "about": "“A homologue of the Parkinson’s disease-associated protein LRRK2 undergoes a monomer-dimer transition during GTP turnover” (Nature Communications, 2017)", "key": {"CtRoc-COR [1]": {"target": "T1, CtRoc-COR (Chlorobaculum tepidum, UniProt Q8KC98, S928C, form not given)", "T1 construct": "gene CT1526; Roc-COR domains, residues 412-946, N-terminal His-tag (pProEX), E. coli BL21(DE3); dimer nucleotide-free, about 65 kDa monomer", "T1 sequence (Q8KC98 entry or part of it S928C, form open)": "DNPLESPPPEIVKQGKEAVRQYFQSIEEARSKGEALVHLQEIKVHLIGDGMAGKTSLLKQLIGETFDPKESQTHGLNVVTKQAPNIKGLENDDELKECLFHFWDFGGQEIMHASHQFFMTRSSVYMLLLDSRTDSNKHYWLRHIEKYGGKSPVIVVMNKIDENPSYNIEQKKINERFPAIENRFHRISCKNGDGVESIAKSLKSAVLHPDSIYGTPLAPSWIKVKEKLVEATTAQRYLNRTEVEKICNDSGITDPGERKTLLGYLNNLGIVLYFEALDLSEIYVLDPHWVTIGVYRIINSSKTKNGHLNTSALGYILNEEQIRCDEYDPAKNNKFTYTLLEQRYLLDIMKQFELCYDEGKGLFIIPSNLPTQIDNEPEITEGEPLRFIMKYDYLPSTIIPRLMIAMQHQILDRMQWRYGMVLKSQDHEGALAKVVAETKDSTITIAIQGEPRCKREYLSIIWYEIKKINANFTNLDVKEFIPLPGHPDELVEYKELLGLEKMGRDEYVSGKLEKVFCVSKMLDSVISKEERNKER", "assay": "stopped-flow Cy3/Cy5 FRET, monomerization", "assay_type": "binding", "conditions": "50 µM or 1 µM GTP, Cy3/Cy5-labelled protein, 25 °C"}, "CtRoc-COR [2]": {"target": "T2, CtRoc-COR (Chlorobaculum tepidum, UniProt Q8KC98)", "T2 construct": "gene CT1526; Roc-COR domains, residues 412-946, N-terminal His-tag (pProEX), E. coli BL21(DE3); dimer nucleotide-free, about 65 kDa monomer", "T2 sequence (Q8KC98 412-946)": "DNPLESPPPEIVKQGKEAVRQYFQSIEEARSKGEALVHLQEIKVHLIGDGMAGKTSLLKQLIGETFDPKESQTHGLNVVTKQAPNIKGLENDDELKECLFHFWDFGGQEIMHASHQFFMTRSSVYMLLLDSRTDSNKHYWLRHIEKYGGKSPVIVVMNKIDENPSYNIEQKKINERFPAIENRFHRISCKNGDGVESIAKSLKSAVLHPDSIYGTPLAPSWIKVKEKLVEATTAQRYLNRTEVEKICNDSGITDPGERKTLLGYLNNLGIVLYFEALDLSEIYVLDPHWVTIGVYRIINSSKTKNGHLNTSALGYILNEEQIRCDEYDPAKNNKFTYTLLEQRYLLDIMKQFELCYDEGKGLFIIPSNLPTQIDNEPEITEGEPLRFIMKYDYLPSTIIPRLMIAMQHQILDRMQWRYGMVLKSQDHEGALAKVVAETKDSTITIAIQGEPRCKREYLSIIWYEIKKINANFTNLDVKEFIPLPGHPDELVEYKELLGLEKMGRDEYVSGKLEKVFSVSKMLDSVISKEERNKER", "assay": "SEC-SAXS, SEC-MALS, native MS, SV-AUC (oligomeric shift)", "assay_type": "binding", "conditions": "pre-incubated with 1 mM (SAXS, MALS), pH 7.5, 5 mM MgCl2"}, "CtRoco": {"target": "T3, CtRoco (Chlorobaculum tepidum, UniProt Q8KC98)", "T3 construct": "gene CT1526; full length, residues 1-1102, N-terminal His-tag (pProEX), E. coli BL21(DE3); dimer nucleotide-free, monomer/dimer equilibrium with GppNHp", "T3 sequence (Q8KC98 1-1102)": "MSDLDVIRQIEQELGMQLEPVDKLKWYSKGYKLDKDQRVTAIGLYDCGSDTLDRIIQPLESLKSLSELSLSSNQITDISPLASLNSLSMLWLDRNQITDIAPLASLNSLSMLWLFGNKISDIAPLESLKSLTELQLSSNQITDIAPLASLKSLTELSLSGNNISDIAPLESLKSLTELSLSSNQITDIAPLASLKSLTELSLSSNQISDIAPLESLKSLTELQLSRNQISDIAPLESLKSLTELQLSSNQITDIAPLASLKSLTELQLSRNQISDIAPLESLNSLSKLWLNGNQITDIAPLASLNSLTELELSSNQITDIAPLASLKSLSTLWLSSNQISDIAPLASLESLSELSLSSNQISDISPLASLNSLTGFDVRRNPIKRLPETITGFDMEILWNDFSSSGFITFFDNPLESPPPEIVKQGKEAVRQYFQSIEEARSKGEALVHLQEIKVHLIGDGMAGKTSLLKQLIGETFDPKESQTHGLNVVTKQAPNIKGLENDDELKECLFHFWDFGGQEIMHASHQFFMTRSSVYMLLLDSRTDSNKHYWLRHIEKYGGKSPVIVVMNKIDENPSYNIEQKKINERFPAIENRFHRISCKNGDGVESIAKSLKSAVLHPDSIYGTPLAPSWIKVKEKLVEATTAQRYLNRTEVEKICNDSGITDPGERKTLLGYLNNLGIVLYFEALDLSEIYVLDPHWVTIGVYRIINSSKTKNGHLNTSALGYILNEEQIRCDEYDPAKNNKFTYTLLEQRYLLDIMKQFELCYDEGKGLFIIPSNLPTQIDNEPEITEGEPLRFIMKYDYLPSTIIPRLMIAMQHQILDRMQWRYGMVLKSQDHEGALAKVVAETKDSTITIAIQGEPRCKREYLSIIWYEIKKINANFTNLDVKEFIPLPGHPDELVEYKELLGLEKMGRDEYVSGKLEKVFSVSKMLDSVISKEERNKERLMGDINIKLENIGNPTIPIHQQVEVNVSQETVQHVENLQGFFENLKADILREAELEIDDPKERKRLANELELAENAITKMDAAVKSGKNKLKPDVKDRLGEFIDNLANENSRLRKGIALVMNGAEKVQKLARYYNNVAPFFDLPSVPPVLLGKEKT", "assay": "SEC-SAXS, SEC-MALS, native MS, AUC, negative-stain EM (oligomeric shift)", "assay_type": "binding", "conditions": "pre-incubated with 1 mM (SAXS, MALS, EM), pH 7.5, 5 mM MgCl2"}, "[3]": {"target": "the molecule itself", "assay": "SEC-SAXS; nucleotide-free protein; 50 µl of 8 mg ml^-1 injected on a Bio SEC-3 column; 20 mM Hepes pH 7.5, 150 mM NaCl, 5 mM MgCl2, 5% glycerol, 1 mM DTT; mass from Porod volume"}, "[4]": {"target": "the molecule itself", "assay": "AUC; sedimentation equilibrium, with GppNHp; dimer to monomers; 7.2, 4.5 and 2.7 µM protein; buffer as SV-AUC; SEDPHAT monomer-dimer model; approximate KD"}, "[5]": {"target": "the molecule itself", "assay": "AUC; sedimentation equilibrium, with GDP; dimer to monomers; 7.2, 4.5 and 2.7 µM protein; buffer as SV-AUC; SEDPHAT monomer-dimer model; approximate KD"}, "[6]": {"target": "the molecule itself", "assay": "native MS; GppNHp: pre-incubated with 500 µM, 100 µM in 150 mM ammonium acetate pH 7.5; protein 12.5-16 µM"}}}
{"molecule": "Nc1nc2c(ncn2[C@@H]2O[C@H](COP(=O)(O)OP(=O)(O)OP(=O)(O)O)[C@@H](O)[C@H]2O)c(=O)[nH]1", "note": "[GTP]", "values": [{"measurement": "stopped-flow Cy3/Cy5 FRET, monomerization", "setting": "CtRoc-COR [1]", "result": "a fast decrease in FRET signal is observed upon mixing the protein"}]}
{"molecule": "Nc1nc2c(ncn2[C@@H]2O[C@H](COP(=O)(O)OP(=O)(O)NP(=O)(O)O)[C@@H](O)[C@H]2O)c(=O)[nH]1", "note": "[GppNHp]", "values": [{"measurement": "SEC-SAXS, SEC-MALS, native MS, SV-AUC (oligomeric shift)", "setting": "CtRoc-COR [2]", "result": "the GTP mimic GppNHp induces monomerization in a concentration dependent manner"}, {"measurement": "SEC-SAXS, SEC-MALS, native MS, AUC, negative-stain EM (oligomeric shift)", "setting": "CtRoco", "result": "As for CtRoc-COR this indicates that GppNHp induces monomerization"}]}
{"molecule": "Roco protein from Chlorobium tepidum (CtRoco), full length (natural protein, UniProt Q8KC98 1-1102, looked up, Roco protein from Chlorobium tepidum (CtRoco), a.a; 1-1102: LRR domain (1-411), Roc-COR module (412-946), C-terminal region (947-1102); also called CtRoco wt; C. tepidum Roco protein; source: E. coli BL21 (DE3), purified (Ni-NTA IMAC, EDTA treatment, Superdex S200 SEC)) MSDLDVIRQIEQELGMQLEPVDKLKWYSKGYKLDKDQRVTAIGLYDCGSDTLDRIIQPLESLKSLSELSLSSNQITDISPLASLNSLSMLWLDRNQITDIAPLASLNSLSMLWLFGNKISDIAPLESLKSLTELQLSSNQITDIAPLASLKSLTELSLSGNNISDIAPLESLKSLTELSLSSNQITDIAPLASLKSLTELSLSSNQISDIAPLESLKSLTELQLSRNQISDIAPLESLKSLTELQLSSNQITDIAPLASLKSLTELQLSRNQISDIAPLESLNSLSKLWLNGNQITDIAPLASLNSLTELELSSNQITDIAPLASLKSLSTLWLSSNQISDIAPLASLESLSELSLSSNQISDISPLASLNSLTGFDVRRNPIKRLPETITGFDMEILWNDFSSSGFITFFDNPLESPPPEIVKQGKEAVRQYFQSIEEARSKGEALVHLQEIKVHLIGDGMAGKTSLLKQLIGETFDPKESQTHGLNVVTKQAPNIKGLENDDELKECLFHFWDFGGQEIMHASHQFFMTRSSVYMLLLDSRTDSNKHYWLRHIEKYGGKSPVIVVMNKIDENPSYNIEQKKINERFPAIENRFHRISCKNGDGVESIAKSLKSAVLHPDSIYGTPLAPSWIKVKEKLVEATTAQRYLNRTEVEKICNDSGITDPGERKTLLGYLNNLGIVLYFEALDLSEIYVLDPHWVTIGVYRIINSSKTKNGHLNTSALGYILNEEQIRCDEYDPAKNNKFTYTLLEQRYLLDIMKQFELCYDEGKGLFIIPSNLPTQIDNEPEITEGEPLRFIMKYDYLPSTIIPRLMIAMQHQILDRMQWRYGMVLKSQDHEGALAKVVAETKDSTITIAIQGEPRCKREYLSIIWYEIKKINANFTNLDVKEFIPLPGHPDELVEYKELLGLEKMGRDEYVSGKLEKVFSVSKMLDSVISKEERNKERLMGDINIKLENIGNPTIPIHQQVEVNVSQETVQHVENLQGFFENLKADILREAELEIDDPKERKRLANELELAENAITKMDAAVKSGKNKLKPDVKDRLGEFIDNLANENSRLRKGIALVMNGAEKVQKLARYYNNVAPFFDLPSVPPVLLGKEKT", "values": [{"measurement": "stoichiometry N", "setting": "[3]", "result": 2}, {"measurement": "Kd", "setting": "[4]", "result": "~30", "unit": "µM"}, {"measurement": "Kd", "setting": "[5]", "result": "~2", "unit": "µM"}, {"measurement": "monomer-dimer ratio", "setting": "[6]", "result": 1, "unit": "monomer/dimer"}]}
